Reference: patent publication US20140212379A1 (AbbVie / Abbott, published 2014)

T1: Human mature IL-1α (human, UniProt P01583 113-271)
T1 sequence: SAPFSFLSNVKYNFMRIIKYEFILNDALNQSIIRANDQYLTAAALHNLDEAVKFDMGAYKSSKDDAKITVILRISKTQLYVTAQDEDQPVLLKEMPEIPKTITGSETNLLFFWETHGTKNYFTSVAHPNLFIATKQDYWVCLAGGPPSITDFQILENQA

T2: Cynomolgus IL-1β (cynomolgus, UniProt P79182 117-268)
T2 sequence (looked up): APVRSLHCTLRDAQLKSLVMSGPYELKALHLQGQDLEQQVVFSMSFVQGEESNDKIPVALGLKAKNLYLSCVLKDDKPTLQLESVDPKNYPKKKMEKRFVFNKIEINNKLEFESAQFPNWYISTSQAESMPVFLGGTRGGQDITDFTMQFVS

T3: Cynomolgus IL-1α (cynomolgus, UniProt P79340 113-271)
T3 sequence (looked up): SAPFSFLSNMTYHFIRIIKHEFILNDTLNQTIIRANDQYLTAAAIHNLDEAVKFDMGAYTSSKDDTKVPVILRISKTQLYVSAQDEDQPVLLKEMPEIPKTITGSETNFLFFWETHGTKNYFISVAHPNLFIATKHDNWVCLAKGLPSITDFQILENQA

B1: X3-LL-E26.13 DVD-Ig (bispecific antibody, human IgG1, kappa, L234A L235A)
heavy: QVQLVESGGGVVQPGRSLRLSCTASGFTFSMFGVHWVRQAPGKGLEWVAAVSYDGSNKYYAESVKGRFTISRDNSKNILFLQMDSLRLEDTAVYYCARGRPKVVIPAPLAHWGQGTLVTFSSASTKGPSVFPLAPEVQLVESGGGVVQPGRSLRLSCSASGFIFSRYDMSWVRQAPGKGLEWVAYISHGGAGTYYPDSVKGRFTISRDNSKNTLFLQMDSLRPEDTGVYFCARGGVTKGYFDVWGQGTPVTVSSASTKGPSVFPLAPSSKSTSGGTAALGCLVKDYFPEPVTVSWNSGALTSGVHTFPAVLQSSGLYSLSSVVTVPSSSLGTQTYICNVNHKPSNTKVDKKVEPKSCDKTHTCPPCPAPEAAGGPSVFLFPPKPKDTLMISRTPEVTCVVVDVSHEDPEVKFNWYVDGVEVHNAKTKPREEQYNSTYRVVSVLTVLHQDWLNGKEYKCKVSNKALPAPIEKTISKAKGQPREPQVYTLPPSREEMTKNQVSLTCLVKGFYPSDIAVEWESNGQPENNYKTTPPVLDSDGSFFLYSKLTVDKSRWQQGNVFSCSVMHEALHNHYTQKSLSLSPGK
light: DIQMTQSPSSVSASVGDRVTITCRASQGISSWLAWYQQKPGKAPKLLIYEASNLETGVPSRFSGSGSGSDFTLTISSLQPEDFATYYCQQTSSFLLSFGGGTKVEHKRTVAAPSVFIFPPDIQMTQSPSSLSASVGDRVTITCRASGNIHNYLTWYQQTPGKAPKLLIYNAKTLADGVPSRFSGSGSGTDYTFTISSLQPEDIATYYCQHFWSIPYTFGQGTKLQITRTVAAPSVFIFPPSDEQLKSGTASVVCLLNNFYPREAKVQWKVDNALQSGNSQESVTEQDSKDSTYSLSSTLTLSKADYEKHKVYACEVTHQGLSSPVTKSFNRGEC
B2: E26.13-SS-X3 JM DVD-Ig (bispecific antibody, human IgG1, kappa, L234A L235A)
heavy: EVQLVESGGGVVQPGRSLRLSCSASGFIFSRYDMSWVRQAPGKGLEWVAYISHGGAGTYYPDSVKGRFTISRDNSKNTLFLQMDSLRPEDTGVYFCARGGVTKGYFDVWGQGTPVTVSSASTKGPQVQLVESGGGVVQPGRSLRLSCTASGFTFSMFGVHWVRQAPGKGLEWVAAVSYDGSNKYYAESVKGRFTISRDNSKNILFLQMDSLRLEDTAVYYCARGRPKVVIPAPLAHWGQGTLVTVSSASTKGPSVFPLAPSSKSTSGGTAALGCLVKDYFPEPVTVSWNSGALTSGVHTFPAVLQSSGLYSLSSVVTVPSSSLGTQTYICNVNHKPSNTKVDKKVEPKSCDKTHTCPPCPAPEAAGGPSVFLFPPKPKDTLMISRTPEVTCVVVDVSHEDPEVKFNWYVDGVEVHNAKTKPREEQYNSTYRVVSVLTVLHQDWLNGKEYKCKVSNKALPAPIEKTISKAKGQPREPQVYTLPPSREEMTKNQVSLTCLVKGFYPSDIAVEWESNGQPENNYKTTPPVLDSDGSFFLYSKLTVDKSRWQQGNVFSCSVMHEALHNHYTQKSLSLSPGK
light: DIQMTQSPSSLSASVGDRVTITCRASGNIHNYLTWYQQTPGKAPKLLIYNAKTLADGVPSRFSGSGSGTDYTFTISSLQPEDIATYYCQHFWSIPYTFGQGTKLQITRTVAAPDIQMTQSPSSVSASVGDRVTITCRASQGISSWLAWYQQKPGKAPKLLIYEASNLETGVPSRFSGSGSGSDFTLTISSLQPEDFATYYCQQTSSFLLSFGGGTKVEIKRTVAAPSVFIFPPSDEQLKSGTASVVCLLNNFYPREAKVQWKVDNALQSGNSQESVTEQDSKDSTYSLSSTLTLSKADYEKHKVYACEVTHQGLSSPVTKSFNRGEC
B3: E26.35-SS-X3 DVD-Ig (bispecific antibody, human IgG1, kappa, L234A L235A)
heavy: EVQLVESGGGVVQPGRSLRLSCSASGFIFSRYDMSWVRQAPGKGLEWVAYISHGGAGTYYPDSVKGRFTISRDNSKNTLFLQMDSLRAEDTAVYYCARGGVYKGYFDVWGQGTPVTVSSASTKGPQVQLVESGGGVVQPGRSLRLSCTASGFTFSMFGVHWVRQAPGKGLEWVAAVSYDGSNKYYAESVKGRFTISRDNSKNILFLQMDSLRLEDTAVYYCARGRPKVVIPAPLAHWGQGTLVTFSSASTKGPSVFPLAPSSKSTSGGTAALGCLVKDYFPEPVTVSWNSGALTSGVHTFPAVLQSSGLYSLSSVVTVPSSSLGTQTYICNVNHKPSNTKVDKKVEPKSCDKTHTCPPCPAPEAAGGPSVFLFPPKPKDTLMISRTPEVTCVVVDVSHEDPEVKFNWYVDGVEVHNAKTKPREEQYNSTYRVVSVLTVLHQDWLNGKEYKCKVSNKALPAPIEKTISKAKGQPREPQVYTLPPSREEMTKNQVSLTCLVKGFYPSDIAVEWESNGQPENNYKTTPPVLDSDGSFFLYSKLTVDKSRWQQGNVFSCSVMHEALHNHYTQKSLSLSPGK
light: DIQMTQSPSSLSASVGDRVTITCRASGNIHNYLTWYQQTPGKAPKLLIYNAKTLADGVPSRFSGSGSGTDYTFTISSLQPEDIATYYCQHFWSIPYTFGQGTKLQITRTVAAPDIQMTQSPSSVSASVGDRVTITCRASQGISSWLAWYQQKPGKAPKLLIYEASNLETGVPSRFSGSGSGSDFTLTISSLQPEDFATYYCQQTSSFLLSFGGGTKVEHKRTVAAPSVFIFPPSDEQLKSGTASVVCLLNNFYPREAKVQWKVDNALQSGNSQESVTEQDSKDSTYSLSSTLTLSKADYEKHKVYACEVTHQGLSSPVTKSFNRGEC
B4: E26.13-LL-X3 DVD-Ig (bispecific antibody, human IgG1, kappa, L234A L235A)
heavy: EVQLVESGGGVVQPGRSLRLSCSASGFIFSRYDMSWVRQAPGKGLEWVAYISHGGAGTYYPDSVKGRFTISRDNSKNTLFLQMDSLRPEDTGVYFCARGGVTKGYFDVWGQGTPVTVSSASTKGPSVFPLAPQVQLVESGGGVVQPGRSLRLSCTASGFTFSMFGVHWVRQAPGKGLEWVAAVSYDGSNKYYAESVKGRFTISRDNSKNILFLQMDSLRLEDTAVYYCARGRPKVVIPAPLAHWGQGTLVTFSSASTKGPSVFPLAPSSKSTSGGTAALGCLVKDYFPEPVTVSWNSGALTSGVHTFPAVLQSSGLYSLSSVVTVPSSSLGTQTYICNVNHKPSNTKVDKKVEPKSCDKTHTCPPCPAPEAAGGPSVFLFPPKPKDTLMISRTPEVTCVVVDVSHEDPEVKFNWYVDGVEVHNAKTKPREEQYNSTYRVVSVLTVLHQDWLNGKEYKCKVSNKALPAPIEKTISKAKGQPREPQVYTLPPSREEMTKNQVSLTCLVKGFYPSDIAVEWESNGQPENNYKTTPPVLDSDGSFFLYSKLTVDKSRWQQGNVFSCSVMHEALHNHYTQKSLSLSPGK
light: DIQMTQSPSSLSASVGDRVTITCRASGNIHNYLTWYQQTPGKAPKLLIYNAKTLADGVPSRFSGSGSGTDYTFTISSLQPEDIATYYCQHFWSIPYTFGQGTKLQITRTVAAPSVFIFPPDIQMTQSPSSVSASVGDRVTITCRASQGISSWLAWYQQKPGKAPKLLIYEASNLETGVPSRFSGSGSGSDFTLTISSLQPEDFATYYCQQTSSFLLSFGGGTKVEHKRTVAAPSVFIFPPSDEQLKSGTASVVCLLNNFYPREAKVQWKVDNALQSGNSQESVTEQDSKDSTYSLSSTLTLSKADYEKHKVYACEVTHQGLSSPVTKSFNRGEC

Assays:
Test in all cases: cell-based or functional assay
[1] = target: Human mature IL-1β (human, UniProt P01584 117-269)
[2] = target: T1, Human mature IL-1α
[3] = target: T2, Cynomolgus IL-1β
[4] = target: T3, Cynomolgus IL-1α

Binder	Potency (pM), inhibition of IL-1-induced hIL-8 in MRC5 cells [1] [pM]	Potency (pM), inhibition of IL-1-induced hIL-8 in MRC5 cells [2] [pM]	Potency (pM), inhibition of IL-1-induced hIL-8 in MRC5 cells [3] [pM]	Potency (pM), inhibition of IL-1-induced hIL-8 in MRC5 cells [4] [pM]
B1	1470	8.9		
B2		26.5	17.6	1880
B3	1.8	25.8	0.6	474
B4		10.2		1050
